{"source": "paper doi:10.1101/2020.11.25.397760", "about": "(bioRxiv, 2020)", "proteins": {"B1": {"name": "FliP (natural protein, Salmonella enterica serovar Typhimurium)", "chain": "QLPGLISQPLAGGGQSWSLSVQTLVFITSLTFLPAILLMMTSFTRIIIVFGLLRNALGTPSAPPNQVLLGLALFLTFFIMSPVIDKIYVDAYQPFSEQKISMQEALDKGAQPLRAFMLRQTREADLALFARLANSGPLQGPEAVPMRILLPAYVTSELKTAFQIGFTIFIPFLIIDLVIASVLMALGMMMVPPATIALPFKLMLFVLVDGWQLLMGSLAQSFYS"}}, "target": "the molecule itself", "experiment": "electron microscopy"}
{"protein": "B1", "values": [{"measurement": "binding result", "value": "binds"}]}
